Columns and labels:
[1] = system: blood-brain barrier (BBB); test: BBB pharmacokinetic transport of 125I-insulin, multiple-time regression analysis (Ki, Vi); format: in vivo, mouse (human E3- and E4-targeted replacement mice); conditions: for Insulin transport rate Ki / Reversible vascular binding (Vi): n = 7-10 mice/group; for Ki (unidirectional influx from blood to brain) / Vi (reversible vascular binding): whole brain; for Ki (unidirectional influx from blood to brain): multiple-time regression, ± SE
Description: Mice were anesthetized with an intraperitoneal injection of 0.1 mL 40% urethane to minimize pain and distress. […] We correct for the exact amount of radioactivity injected based on serum levels. […] Blood from the left carotid artery was collected between 0.5–10 min after intravenous injection. Mice were immediately decapitated and their whole brains quickly removed and weighed. The arterial blood was centrifuged at 5400g for 10 min at 4°C and serum collected. The brains were dissected into regions according to the method of [27] and weighed. The levels of radioactivity in serum (50 μL) and brain regions were counted in a gamma counter (Wizard2, Perkin Elmer, Waltham, MA). […] Expt was calculated from the formula: Exposuretime=∫0tCp(t)dt/Cp(t) (1) where Cp is the level of radioactivity (cpm) in serum at time (t). Expt corrects for the clearance of peptide from the blood. […] The influx of insulin was calculated by multiple-time regression analysis as described by Patlak, Blasberg, and Fenstermacher: Am/Cpt=Ki(∫0tCp(t)dt/Cp(t))+Vi (2) where Am is level of radioactivity (cpm) per g of brain tissue at time t, Cpt is the level of radioactivity (cpm) per mL arterial serum at time t, Ki (μL/g-min) is the unidirectional solute influx from blood to brain, and Vi (μL/g) is the level of rapid and reversible binding for the brain vasculature. The brain/serum (B/S) ratios for insulin were corrected for vascular space by subtracting the corresponding ratio for albumin, yielding a delta B/S ratio. The linear portion of the relation between the delta B/S ratio versus Expt was used to calculate the Ki (μL/g-min) with its standard error term, and the y-intercept determined as representation of the Vi (μL/g) for each brain region. For whole brain, the weights and cpm of all individual brain regions except for the olfactory bulb were summed to calculate the B/S ratio. […] All anesthetized mice were killed by decapitation at the end of the study.
Regression analysis and other statistical analyses were performed with the use of Prism 8.0 (GraphPad Software Inc., San Diego, CA, USA). Brain weight means are reported with their standard error terms and compared by two-way analysis of variance (ANOVA) followed by Sidak’s post hoc test to determine differences due to genotype or sex. […] For pharmacokinetic studies (multiple-time regression analysis), the slope of the linear regression lines (Ki), reported with their correlation coefficients (r), and y-intercepts (Vi) were compared statistically with the Prism 8.0 software package, as described.

[2] = set-up: species or system mouse (human E3- and E4-targeted replacement mice); conditions: in vivo
Description: Mice were anesthetized with an intraperitoneal injection of 0.1 mL 40% urethane to minimize pain and distress. […] We correct for the exact amount of radioactivity injected based on serum levels. […] Blood from the left carotid artery was collected between 0.5–10 min after intravenous injection. Mice were immediately decapitated and their whole brains quickly removed and weighed. The arterial blood was centrifuged at 5400g for 10 min at 4°C and serum collected. The brains were dissected into regions according to the method of [27] and weighed. The levels of radioactivity in serum (50 μL) and brain regions were counted in a gamma counter (Wizard2, Perkin Elmer, Waltham, MA). […] Expt was calculated from the formula: Exposuretime=∫0tCp(t)dt/Cp(t) (1) where Cp is the level of radioactivity (cpm) in serum at time (t). Expt corrects for the clearance of peptide from the blood. […] The influx of insulin was calculated by multiple-time regression analysis as described by Patlak, Blasberg, and Fenstermacher: Am/Cpt=Ki(∫0tCp(t)dt/Cp(t))+Vi (2) where Am is level of radioactivity (cpm) per g of brain tissue at time t, Cpt is the level of radioactivity (cpm) per mL arterial serum at time t, Ki (μL/g-min) is the unidirectional solute influx from blood to brain, and Vi (μL/g) is the level of rapid and reversible binding for the brain vasculature. […]

[3] = system: blood-brain barrier (BBB); conditions: in vivo; cited from earlier work
Description: Our studies are designed to investigate the transfer of human ^125I-insulin from the periphery to the CNS. Rat and human insulin are transported across the BBB at similar rates and are both saturable by excess respective peptide. […] We used the well-described multiple-time regression analysis technique first described by Patlak, Blasberg, and Fenstermacher. This an ...

[4] = system: blood-brain barrier (BBB); set-up: method as in PMID 30044494; conditions: in vivo; cited from earlier work

125I-insulin: Human insulin (Sigma-Aldrich) radioactively labeled with Na125I by the chloramine-T method
Insulin transport rate Ki ([1]; E3 Female, Cerebellum): 1.189 µL/g/min
Reversible vascular binding (Vi) ([1]; E3 Female, Cerebellum): 8.36 µL/g
Insulin transport rate Ki ([1]; E3 Female, Frontal Cortex): 0.796 µL/g/min
Reversible vascular binding (Vi) ([1]; E3 Female, Frontal Cortex): 4.65 µL/g
Insulin transport rate Ki ([1]; E3 Female, Hippocampus, ns = non-significant transport): ns
Insulin transport rate Ki ([1]; E3 Female, Hypothalamus): 1.541 µL/g/min
Reversible vascular binding (Vi) ([1]; E3 Male, Parietal Cortex): 4.17 µL/g
Insulin transport rate Ki ([1]; E3 Male, Pons/Medulla): 0.739 µL/g/min
Insulin transport rate Ki ([1]; E3 Male, Striatum, ns = non-significant transport): ns
Insulin transport rate Ki ([1]; E3 Male, Thalamus, ns = non-significant transport): ns
Insulin transport rate Ki ([1]; E4 Female, Cerebellum): 2.110 µL/g/min
Reversible vascular binding (Vi) ([1]; E4 Female, Cerebellum): 8.91 µL/g
Insulin transport rate Ki ([1]; E4 Female, Frontal Cortex): 0.720 µL/g/min
Reversible vascular binding (Vi) ([1]; E4 Female, Olfactory Bulb): 11.71 µL/g
Insulin transport rate Ki ([1]; E4 Female, Parietal Cortex): 0.859 µL/g/min
Reversible vascular binding (Vi) ([1]; E4 Female, Parietal Cortex): 3.31 µL/g
Insulin transport rate Ki ([1]; E4 Female, Pons/Medulla): 1.111 µL/g/min
Insulin transport rate Ki ([1]; E4 Female, Striatum, ns = non-significant transport): ns
Insulin transport rate Ki ([1]; E4 Female, Thalamus): 0.634 µL/g/min
Insulin transport rate Ki ([1]; E4 Male, Cerebellum, ns = non-significant transport): ns
Insulin transport rate Ki ([1]; E4 Male, Frontal Cortex): 1.023 µL/g/min
Reversible vascular binding (Vi) ([1]; E4 Male, Frontal Cortex): 5.90 µL/g
Insulin transport rate Ki ([1]; E4 Male, Hippocampus, ns = non-significant transport): ns
Insulin transport rate Ki ([1]; E4 Male, Hypothalamus): 2.272 µL/g/min
Reversible vascular binding (Vi) ([1]; E4 Male, Hypothalamus): 5.63 µL/g
Insulin transport rate Ki ([1]; E4 Male, Midbrain): 0.887 µL/g/min
Reversible vascular binding (Vi) ([1]; E4 Male, Midbrain): 6.38 µL/g
Insulin transport rate Ki ([1]; E4 Male, Occipital Cortex): 0.793 µL/g/min
Reversible vascular binding (Vi) ([1]; E4 Male, Occipital Cortex): 6.71 µL/g
Insulin transport rate Ki ([1]; E4 Male, Olfactory Bulb): 1.712 µL/g/min
Reversible vascular binding (Vi) ([1]; E4 Male, Olfactory Bulb): 13.31 µL/g
Insulin transport rate Ki ([1]; E4 Male, Parietal Cortex): 0.920 µL/g/min
Reversible vascular binding (Vi) ([1]; E4 Male, Parietal Cortex): 4.74 µL/g
Insulin transport rate Ki ([1]; E4 Male, Pons/Medulla, ns = non-significant transport): ns
Insulin transport rate Ki ([1]; E4 Male, Striatum, ns = non-significant transport): ns
Insulin transport rate Ki ([1]; E4 Male, Thalamus): 1.203 µL/g/min
Reversible vascular binding (Vi) ([1]; E4 Male, Thalamus): 4.56 µL/g
Ki (unidirectional influx from blood to brain) ([1]; Female E3, iv, albumin-corrected): 1.128 ± 0.32 µL/g/min
Vi (reversible vascular binding) ([1]; Female E3, y-intercept of multiple-time regression): 4.41 ± 2.31 µL/g
Ki (unidirectional influx from blood to brain) ([1]; Female E4): 1.033 ± 0.28 µL/g/min
Vi (reversible vascular binding) ([1]; Female E4, y-intercept of multiple-time regression): 7.17 ± 2.07 µL/g
Vi (reversible vascular binding) ([1]; Female, genotypes Combined): 7.84 ± 1.26 µL/g
Ki (unidirectional influx from blood to brain) ([1]; Female, genotypes Combined): 0.691 ± 0.16 µL/g/min
Vi (reversible vascular binding) ([1]; Male E3, y-intercept of multiple-time regression): 7.17 ± 0.95 µL/g
Ki (unidirectional influx from blood to brain) ([1]; Male E4): 0.781 ± 0.32 µL/g/min
Vi (reversible vascular binding) ([1]; Male E4, y-intercept of multiple-time regression): 8.23 ± 2.13 µL/g
Vi (reversible vascular binding) ([1]; Male, genotypes Combined): 7.88 ± 1.09 µL/g
Ki (unidirectional influx from blood to brain) ([1]; Male, genotypes Combined): 0.803 ± 0.17 µL/g/min
Serum clearance rate, slower in males compared to females [2]: > 2 fold
Whole brain transport rate, average previously observed [3]: 0.71 ± 0.17 µL/g/min
Distribution between brain capillary and brain parenchyma [4]: enters the brain parenchyma
